Test results taken from FireProtDB (doi:10.1021/bi962163z).

B1: Annexin A5, P08758 (parent)
chain: MAQVLRGTVTDFPGFDERADAETLRKAMKGLGTDEESILTLLTSRSNAQRQEISAAFKTLFGRDLLDDLKSELTGKFEKLIVALMKPSRLYDAYELKHALKGAGTNEKVLTEIIASRTPEELRAIKQVYEEEYGSSLEDDVVGDTSGYYQRMLVVLLQANRDPDAGIDEAQVEQDAQALFQAGELKWGTDEEKFITIFGTRSVSHLRKVFDKYMTISGFQIEETIDRETSGNLEQLLLAVVKSIRSIPAYLAETLYYAMKGAGTDDHTLIRVMVSRSEIDLFNIRKEFRKNFATSLYSMIKGDTSGDYKKALLLLCGEDD

Variants of: B1
Conditions: Homo sapiens; pH 8; Thermal; DSC; Tris 50 mM; KCl 100 mM; reversible: no; structure 1AVR; whole UniProt chain shown

Variant	Tm	unfolding enthalpy (calorimetric)	unfolding enthalpy (van 't Hoff)
MAQVLRGTVTDFPGFDGRADAETLRKAMKGLGTDEESILTLLTSRSNAQRQEISAAFKTLFGRDLLDDLKSELTGKFEKLIVALMKPSRLYDAYELKHALKGAGTNEKVLTEIIASRTPEELRAIKQVYEEEYGSSLEDDVVGDTSGYYQRMLVVLLQANRDPDAGIDEAQVEQDAQALFQAGELKWGTDEEKFITIFGTRSVSHLRKVFDKYMTISGFQIEETIDRETSGNLEQLLLAVVKSIRSIPAYLAETLYYAMKGAGTDDHTLIRVMVSRSEIDLFNIRKEFRKNFATSLYSMIKGDTSGDYKKALLLLCGEDD [E17G]	52.8 °C	686 kJ/mol	725 kJ/mol
